According to US20220267469A1 (LIPUM, published 2022):

Key:
[1] = target: T1, Human BSSL (bile salt-stimulated lipase), native (human, UniProt P19835 21-753); assay: cell-based or functional assay
T1 sequence: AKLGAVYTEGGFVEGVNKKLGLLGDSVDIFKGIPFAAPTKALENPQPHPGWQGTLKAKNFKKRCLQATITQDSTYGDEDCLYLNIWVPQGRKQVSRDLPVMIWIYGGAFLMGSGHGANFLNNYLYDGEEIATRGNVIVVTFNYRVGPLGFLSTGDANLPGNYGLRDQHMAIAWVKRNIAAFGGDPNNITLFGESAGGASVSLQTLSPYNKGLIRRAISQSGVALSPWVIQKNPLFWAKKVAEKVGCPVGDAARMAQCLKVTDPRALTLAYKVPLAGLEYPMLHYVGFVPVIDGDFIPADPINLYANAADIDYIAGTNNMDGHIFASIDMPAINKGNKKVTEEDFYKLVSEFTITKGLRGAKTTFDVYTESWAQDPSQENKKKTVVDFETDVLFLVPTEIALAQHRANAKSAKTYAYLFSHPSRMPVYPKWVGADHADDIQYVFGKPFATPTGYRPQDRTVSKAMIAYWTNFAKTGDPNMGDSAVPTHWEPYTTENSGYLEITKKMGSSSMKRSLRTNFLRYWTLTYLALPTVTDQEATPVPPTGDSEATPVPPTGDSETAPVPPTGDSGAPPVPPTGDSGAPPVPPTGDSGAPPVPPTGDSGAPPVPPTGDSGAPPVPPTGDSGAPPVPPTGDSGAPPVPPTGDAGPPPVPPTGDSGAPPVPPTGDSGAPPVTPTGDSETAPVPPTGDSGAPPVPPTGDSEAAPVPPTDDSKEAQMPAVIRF

[2] = target: T1, Human BSSL (bile salt-stimulated …); assay: cell-based or functional assay; remark: listed apart in the source
[3] = target: T2, Mouse BSSL, recombinant (mouse, UniProt Q64285 21-599); assay: SPR steady state, hIgG4 S228P captured by anti-Fab
T2 construct: Bought (R&D Systems, Cat. no 5658-CE); also called mBSSL; murine BSSL
T2 sequence: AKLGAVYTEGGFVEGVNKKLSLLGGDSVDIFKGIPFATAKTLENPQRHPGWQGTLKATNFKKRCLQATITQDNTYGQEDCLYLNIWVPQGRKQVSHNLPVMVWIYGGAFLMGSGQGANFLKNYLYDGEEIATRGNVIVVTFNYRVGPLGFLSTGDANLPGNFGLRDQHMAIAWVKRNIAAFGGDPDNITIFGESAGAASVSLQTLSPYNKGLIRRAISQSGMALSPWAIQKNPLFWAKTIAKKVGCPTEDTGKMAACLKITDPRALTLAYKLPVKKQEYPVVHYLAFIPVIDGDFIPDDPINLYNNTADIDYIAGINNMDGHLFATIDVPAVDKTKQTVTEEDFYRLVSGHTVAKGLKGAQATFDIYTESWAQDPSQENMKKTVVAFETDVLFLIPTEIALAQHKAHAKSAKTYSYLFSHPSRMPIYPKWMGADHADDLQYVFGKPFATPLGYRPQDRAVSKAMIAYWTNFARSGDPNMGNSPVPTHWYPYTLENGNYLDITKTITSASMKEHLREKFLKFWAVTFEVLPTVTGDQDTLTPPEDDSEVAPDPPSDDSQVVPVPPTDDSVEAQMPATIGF
Protocol: (§1) Kinetic parameters of the hIgG4 S228P clones were determined by SPR using BIACORE® T200 (GE Healthcare). Single cycle kinetics was used to measure the affinity of the purified hIgG4 molecules to human and mouse BSSL. An anti-Fab antibody (GE Healthcare, #28958325) was immobilized on a CM5 S sensor chip by primary amine coupling using NHS-EDC chemistry. hIgG4 was captured by the anti-Fab antibody, and subsequently, five different concentrations of hBSSL (1:5 dilutions starting from 50 nM) or mBSSL (1:5 dilutions starting from 500 nM) were injected over the surface. The sensor chip surface was regenerated with 10 mM glycine-HCl pH 2.1. For binding to human BSSL, single cycle kinetic data was fitted to a 1:1 binding model and kinetic parameters were retrieved using software BlAevaluation. For mouse BSSL, a steady state analysis was performed by plotting the response level at equilibrium against each concentration, and KD values were retrieved by the BlAevalution software.

[4] = target: T1, Human BSSL (bile salt-stimulated …); assay: SPR single cycle kinetics, hIgG4 S228P captured by anti-Fab
Protocol: as §1

[5] = target: T2, Mouse BSSL, recombinant; assay: SPR steady state, captured by anti-Fab, Absolute Antibody batch
Protocol: as §1, with “Healthcare).” for “Healthcare). Single cycle kinetics was used to measure the affinity of the purified hIgG4 molecules to human and mouse BSSL.”, “(GE” for “(GE Healthcare,”, “chemistry. The” for “chemistry.”, “hIgG4 antibodies were” for “hIgG4 was”, “(1:5 dilutions, 0.08-50” for “(1:5 dilutions starting from 50”, “mBSSL (1:2 dilutions, 50-800” for “mBSSL (1:5 dilutions starting from 500”

[6] = target: T3, Biotinylated human BSSL (human, UniProt P19835 21-753, Biotinylated on glycosacarides, 30-40 biotin/BSSL); assay: flow cytometry displacement assay; 1.5 ug antibody, 1 ug b-hBSSL
T3 construct: hBSSL biotinylated in house; also called b-hBSSL; human BSSL-biotin
T3 sequence: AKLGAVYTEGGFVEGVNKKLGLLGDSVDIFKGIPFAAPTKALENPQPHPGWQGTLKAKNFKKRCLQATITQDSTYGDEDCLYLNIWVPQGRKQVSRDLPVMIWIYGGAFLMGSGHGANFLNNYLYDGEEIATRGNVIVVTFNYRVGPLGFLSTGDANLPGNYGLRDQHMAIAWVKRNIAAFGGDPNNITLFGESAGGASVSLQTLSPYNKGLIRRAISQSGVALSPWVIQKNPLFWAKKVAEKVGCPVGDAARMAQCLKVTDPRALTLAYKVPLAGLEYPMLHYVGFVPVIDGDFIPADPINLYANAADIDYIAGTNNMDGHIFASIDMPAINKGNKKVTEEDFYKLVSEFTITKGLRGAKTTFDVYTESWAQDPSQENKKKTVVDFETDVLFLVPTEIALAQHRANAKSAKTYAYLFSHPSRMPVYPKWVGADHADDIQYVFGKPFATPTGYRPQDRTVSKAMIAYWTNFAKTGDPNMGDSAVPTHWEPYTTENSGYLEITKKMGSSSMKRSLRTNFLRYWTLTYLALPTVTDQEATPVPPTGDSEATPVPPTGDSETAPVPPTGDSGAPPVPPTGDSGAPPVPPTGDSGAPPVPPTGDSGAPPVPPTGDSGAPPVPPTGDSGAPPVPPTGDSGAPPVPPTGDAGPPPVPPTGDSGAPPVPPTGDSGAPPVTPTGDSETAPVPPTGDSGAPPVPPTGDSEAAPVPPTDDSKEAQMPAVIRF
Protocol: (§2) The 28 BSSL-specific hIgG4 antibodies and the five reference antibodies at different concentrations (ranging from 0.5 μg to 3.0 μg per reaction; see Table 10) were added to b-hBSSL (1 μg per reaction, see Table 2) in round-bottom polystyrene tubes, lx PBS (pH 7.4) was added to a final volume of 20 μl and the antibody/b-hBSSL mixtures were incubated for 30 min. at +4° C. to facilitate binding of antibodies to BSSL. Buffy coat (50 μl) was then added to each antibody/b-hBSSL mixture and incubation continued for another 30 min at +4° C. Thereafter, 2 ml of FACS lysing solution (BD Biosciences) was added and the cells were incubated for 10 min at room temperature in order to lyse erythrocytes and fix the white blood cells. The cells were then centrifuged for 5 min. at 200×g, the resulting pellets were washed by adding 2 ml of FACS buffer (1×PBS supplemented with 1% FCS and 0.1% NaN3) and centrifuged again. Finally, the supernatants were discarded and the cells were resuspended in the last drop of liquid, approximately 50 μl.
(§3) 5 μl of BV421-labelled anti-human CD14 (BD Biosciences) and 5 μl of BB515-labelled streptavidin (BD Biosciences) was added to each tube and incubated for 30 min, at +4° C., protected from light. Thereafter, cells were washed twice with FACS buffer, resuspended in 500 μl FACS buffer, and run on BD LSRII flow cytometer (BD Biosciences). Finally, data were analyzed using FlowJo software (BD Biosciences).

[7] = target: T3, Biotinylated human BSSL; assay: flow cytometry displacement assay; 3.0 ug antibody, 1 ug b-hBSSL
Protocol: as §2, §3

[8] = target: T1, Human BSSL (bile salt-stimulated …); assay: SPR single cycle kinetics, captured by anti-Fab, Absolute Antibody batch
Protocol: as §1, with “Healthcare).” for “Healthcare). Single cycle kinetics was used to measure the affinity of the purified hIgG4 molecules to human and mouse BSSL.”, “(GE” for “(GE Healthcare,”, “chemistry. The” for “chemistry.”, “hIgG4 antibodies were” for “hIgG4 was”, “(1:5 dilutions, 0.08-50” for “(1:5 dilutions starting from 50”, “mBSSL (1:2 dilutions, 50-800” for “mBSSL (1:5 dilutions starting from 500”

Binder | BSSL hydrolysis of triglycerides, relative value (no antibody = 100%); 0.19 ug antibody [1] [%] | BSSL hydrolysis of triglycerides, relative value (no antibody = 100%); 0.38 ug antibody [1] [%] | BSSL hydrolysis of triglycerides, relative value (no antibody = 100%); 0.75 ug antibody [1] [%] | BSSL hydrolysis of triglycerides, relative value (no antibody = 100%); 1.5 ug antibody [1] [%] | BSSL hydrolysis of triglycerides, relative value (no antibody = 100%); 3.0 ug antibody [1] [%] | BSSL hydrolysis of triglycerides, relative value (no antibody = 100%); 6.0 ug antibody [1] [%] | BSSL hydrolysis of cholesterol esters, relative value (no antibody = 100%); 0.19 ug antibody [2] [%] | BSSL hydrolysis of cholesterol esters, relative value (no antibody = 100%); 0.38 ug antibody [2] [%] | BSSL hydrolysis of cholesterol esters, relative value (no antibody = 100%); 0.75 ug antibody [2] [%] | BSSL hydrolysis of cholesterol esters, relative value (no antibody = 100%); 1.5 ug antibody [2] [%] | BSSL hydrolysis of cholesterol esters, relative value (no antibody = 100%); 3.0 ug antibody [2] [%] | BSSL hydrolysis of cholesterol esters, relative value (no antibody = 100%); 6.0 ug antibody [2] [%] | Kd [3] [nM] | Kd [4] [nM] | Kd [5] [nM] | percentage reduction of b-hBSSL binding to CD14+ monocytes [6] [%] | percentage reduction of b-hBSSL binding to CD14+ monocytes [7] [%] | Kd [8] [nM]
S-SL048-46 hIgG4 S228P (antibody, V domains shown, also called clone 46; mAb46) VH: QVQLVQSGAEVKKPGASVKVSCKASGYTFTSYNMHWVRQAPGQGLEWMGVINPGDGATSYNQKFQGRVTMTRDTSTSTVYMELSSLRSEDTAVYYCARDYYGSSPLGYWGQGTLVTVSS VL: DIQMTQSPSSLSASVGDRVTITCRASSSISYLNWYQQKPGKAPKLLIYAASSLASGVPSRFSGSGSGTDFTLTISSLQPEDFATYYCHQRSSSPTFGQGTKLEIKR | 105 | 123 | 121 | 113 | 119 | 126 | 95.7 | 99 | 97.6 | 88.3 | 93.5 | 97.7 | 24 | 3.7 | 55 | 43 | 61 | 3.8
S-SL048-116 hIgG4 S228P (antibody, V domains shown, also called mAb116) VH: QVQLVQSGAEVKKPGASVKVSCKASGYTFTSYNMHWVRQAPGQGLEWMGVINPGDGATSYAQKFKGRVTMTRDTSTSTVYMELSSLRSEDTAVYYCARDYYGSSPLGYWGQGTLVTVSS VL: DIQMTQSPSSLSASVGDRVTITCRASPSISYMNWYQQKPGKAPKLLIYATSSLASGVPSRFSGSGSGTDFTLTISSLQPEDFATYYCHQRSSSPTFGQGTKLEIKR | 105 | 112 | 100 | 96.2 | 106 | 108 | 104 | 107 | 102 | 103 | 107 | 107 | 52 | 0.6 | 40 | 58 | 64 | 0.5
S-SL048-118 hIgG4 S228P (antibody, V domains shown, also called clone 118; mAb118) VH: QVQLVQSGAEVKKPGASVKVSCKASGYTFTSYNMHWVRQAPGQGLEWMGVINPGDGATSYAQKFKGRVTMTRDTSTSTVYMELSSLRSEDTAVYYCARDYYGSSPLGYWGQGTLVTVSS VL: DIQMTQSPSSLSASVGDRVTITCSASPSISYMNWYQQKPGKAPKLLIYATSSLPSGVPSRFSGSGSGTDFTLTISSLQPEDFATYYCHQRSSSPTFGQGTKLEIKR | 107 | 106 | 102 | 88 | 93.9 | 119 | 105 | 103 | 110 | 105 | 106 | 102 | 95 | 0.9 | 70 | 23 | 58 | 0.5
